The supplement of paper PMC9112550, “Optimization of the antimicrobial peptide Bac7 by deep mutational scanning” (BMC Biology, 2022)

system: Escherichia coli TOP10; experiment: shrunken log2 fold change of peptide-encoding DNA abundance (4.5 h post-induction vs induction); higher = less antimicrobial activity (less host growth inhibition); details: time post-induction: 4.5 h; library: site-saturation at positions 5, 18, 19, 20
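Note: peptides expressed intracellularly from a pBAD plasmid library in pooled LB shake-flask culture, induced with 0.3% L-arabinose, DNA abundance read by NGS, three biological replicates, DESeq2 with apeglm shrinkage.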

Sequence | shrunken log2 fold change
RRIRCRPPRLPRPRPRPNAPPRP | 0.367
RRIRSRPPRLPRPRPRPVYCPRP | -0.138
RRIRIRPPRLPRPRPRPTYHPRP | -0.949
RRIRGRPPRLPRPRPRPRQYPRP | -0.0954
RRIRIRPPRLPRPRPRPNQEPRP | -0.177
RRIRDRPPRLPRPRPRPANDPRP | -0.176
RRIRYRPPRLPRPRPRPCTPPRP | -1.14
RRIRTRPPRLPRPRPRPGNQPRP | -0.0161
RRIRDRPPRLPRPRPRPNFTPRP | -0.0368
RRIRDRPPRLPRPRPRPVPNPRP | -0.0123
RRIRDRPPRLPRPRPRPRVSPRP | 0.223
RRIRTRPPRLPRPRPRPIHDPRP | -0.0511
RRIRMRPPRLPRPRPRPIPCPRP | 0.02
RRIRQRPPRLPRPRPRPYEQPRP | -0.609
RRIRNRPPRLPRPRPRPGFEPRP | 0.123
RRIRMRPPRLPRPRPRPTDMPRP | 0.0845
RRIRFRPPRLPRPRPRPSKVPRP | -0.293
RRIRQRPPRLPRPRPRPHMPPRP | -0.0493
RRIRIRPPRLPRPRPRPDWPPRP | 0.0262
RRIRTRPPRLPRPRPRPSTDPRP | 0.201
RRIRDRPPRLPRPRPRPHKGPRP | 0.0993
RRIRERPPRLPRPRPRPKMRPRP | 0.962

Sequence | shrunken log2 fold change
RRIRIRPPRLPRPRPRPYQRPRP | -0.12
RRIRVRPPRLPRPRPRPCGEPRP | -0.256
RRIRSRPPRLPRPRPRPTDFPRP | -0.541
RRIRTRPPRLPRPRPRPGDEPRP | 0.195
RRIRRRPPRLPRPRPRPQGVPRP | -0.159
RRIRWRPPRLPRPRPRPAWVPRP | 0.378
RRIRQRPPRLPRPRPRPYFTPRP | -0.818
RRIRTRPPRLPRPRPRPRHWPRP | 0.0182
RRIRPRPPRLPRPRPRPEASPRP | 0.0221
RRIRHRPPRLPRPRPRPHVAPRP | -0.208
RRIRMRPPRLPRPRPRPYSSPRP | -0.115
RRIRPRPPRLPRPRPRPVLFPRP | 0.118
RRIRMRPPRLPRPRPRPMDAPRP | 0.781
RRIRLRPPRLPRPRPRPNETPRP | -0.0172
RRIRGRPPRLPRPRPRPQFIPRP | 0.0876
RRIRYRPPRLPRPRPRPWITPRP | -0.0192
RRIRRRPPRLPRPRPRPWPIPRP | 0.0239
RRIRIRPPRLPRPRPRPQMPPRP | -0.662
RRIRSRPPRLPRPRPRPSIWPRP | 0.266
RRIRMRPPRLPRPRPRPIHYPRP | -0.689
RRIRPRPPRLPRPRPRPEQFPRP | -0.0226
RRIRFRPPRLPRPRPRPYNLPRP | -0.322

Sequence | shrunken log2 fold change
RRIRWRPPRLPRPRPRPCVQPRP | 2.8
RRIRSRPPRLPRPRPRPDETPRP | -0.0257
RRIRVRPPRLPRPRPRPAFDPRP | -0.339
RRIRVRPPRLPRPRPRPDHWPRP | 0.152
RRIRCRPPRLPRPRPRPMMRPRP | 0.0843
RRIRGRPPRLPRPRPRPQLIPRP | 0.139
RRIRDRPPRLPRPRPRPVCRPRP | 0.251
RRIRARPPRLPRPRPRPKDDPRP | 0.811
RRIRFRPPRLPRPRPRPWFHPRP | -0.714
RRIRPRPPRLPRPRPRPQMPPRP | -0.451
RRIRARPPRLPRPRPRPAPTPRP | 0.838
RRIRVRPPRLPRPRPRPTYKPRP | -0.512
RRIRGRPPRLPRPRPRPNSPPRP | -0.0974
RRIRDRPPRLPRPRPRPGSMPRP | -0.403
RRIRRRPPRLPRPRPRPQPFPRP | -0.0201
RRIRCRPPRLPRPRPRPAMFPRP | -0.0946
RRIRGRPPRLPRPRPRPDLQPRP | 1.37
RRIRTRPPRLPRPRPRPTTVPRP | -0.271
RRIRLRPPRLPRPRPRPWYCPRP | -0.766
RRIRDRPPRLPRPRPRPAEIPRP | 0.184
RRIRSRPPRLPRPRPRPYVIPRP | -0.292
RRIRPRPPRLPRPRPRPCLIPRP | -0.129

Sequence | shrunken log2 fold change
RRIRIRPPRLPRPRPRPAQGPRP | 0.168
RRIRWRPPRLPRPRPRPYNHPRP | -1.43
RRIRPRPPRLPRPRPRPVIIPRP | -0.286
RRIRARPPRLPRPRPRPRFMPRP | 0.0944
RRIRQRPPRLPRPRPRPKTQPRP | 0.121
RRIRCRPPRLPRPRPRPQSIPRP | -0.394
RRIRGRPPRLPRPRPRPDNGPRP | -0.0263
RRIRTRPPRLPRPRPRPLLWPRP | 0.223
RRIRSRPPRLPRPRPRPRVFPRP | 0.151
RRIRARPPRLPRPRPRPVQQPRP | 0.954
RRIRFRPPRLPRPRPRPECQPRP | -0.0729
RRIRVRPPRLPRPRPRPYVWPRP | -0.567
RRIRLRPPRLPRPRPRPHAGPRP | 0.168
RRIRMRPPRLPRPRPRPLLIPRP | -0.397
RRIRTRPPRLPRPRPRPKRHPRP | 0.222
RRIRVRPPRLPRPRPRPDQIPRP | -0.0895
RRIRSRPPRLPRPRPRPPEMPRP | 0.265
RRIRFRPPRLPRPRPRPTSRPRP | -0.291
RRIRQRPPRLPRPRPRPHPCPRP | -0.0985
RRIRDRPPRLPRPRPRPDKKPRP | 0.0252
RRIRQRPPRLPRPRPRPSTLPRP | -0.319
RRIRHRPPRLPRPRPRPFSCPRP | -0.0244

Sequence | shrunken log2 fold change
RRIRLRPPRLPRPRPRPHFMPRP | 0.0603
RRIRRRPPRLPRPRPRPTWSPRP | 0.519
RRIRMRPPRLPRPRPRPERCPRP | 0.201
RRIRGRPPRLPRPRPRPSWHPRP | 0.0802
RRIRFRPPRLPRPRPRPIGPPRP | 0.0274
RRIRERPPRLPRPRPRPCFYPRP | -0.43
RRIRDRPPRLPRPRPRPIYVPRP | -0.0326
RRIRFRPPRLPRPRPRPYKTPRP | -0.166
RRIRRRPPRLPRPRPRPLIEPRP | 0.35
RRIRARPPRLPRPRPRPIFTPRP | 0.165
RRIRIRPPRLPRPRPRPNCDPRP | -0.486
RRIRLRPPRLPRPRPRPQFFPRP | 0.551
RRIRPRPPRLPRPRPRPDENPRP | -0.0444
RRIRQRPPRLPRPRPRPNLHPRP | -0.255
RRIRMRPPRLPRPRPRPQRVPRP | 1.27
RRIRCRPPRLPRPRPRPGKIPRP | -0.399
RRIRKRPPRLPRPRPRPENVPRP | -0.00931
RRIRDRPPRLPRPRPRPNTSPRP | -0.284
RRIRMRPPRLPRPRPRPTEGPRP | 0.269
RRIRPRPPRLPRPRPRPKDYPRP | -0.0674
RRIRDRPPRLPRPRPRPHIGPRP | -0.0522
